Measured values reported in patent CN116082499A.

Assays:
[1] = target: DENV抗原 (DENV阳性血清) (dengue virus (DENV), serotype not stated); assay: sandwich ELISA, antibody at 6.25 ng/ml captured on goat anti-mouse IgG, DENV-positive serum, HRP-labelled DENV mAb
[2] = target: DENV抗原 (DENV阳性血清) (dengue virus (DENV), serotype not stated); assay: sandwich ELISA, antibody at 12.5 ng/ml captured on goat anti-mouse IgG, DENV-positive serum, HRP-labelled DENV mAb
[3] = target: DENV抗原 (DENV阳性血清) (dengue virus (DENV), serotype not stated); assay: sandwich ELISA, antibody at 0 ng/ml (blank without antibody), goat anti-mouse IgG, DENV-positive serum, HRP-labelled DENV mAb
[4] = target: DENV-IV抗原(一种NS1蛋白，购自菲鹏) (dengue virus serotype 4 (DENV-IV)) (UniProt P09866)
[5] = target: DENV抗原 (DENV阳性血清) (dengue virus (DENV), serotype not stated); assay: sandwich ELISA, antibody at 0.78125 ng/ml captured on goat anti-mouse IgG, DENV-positive serum, HRP-labelled DENV mAb
[6] = target: DENV抗原 (DENV阳性血清) (dengue virus (DENV), serotype not stated); assay: sandwich ELISA, antibody at 1.5625 ng/ml captured on goat anti-mouse IgG, DENV-positive serum, HRP-labelled DENV mAb
[7] = target: DENV抗原 (DENV阳性血清) (dengue virus (DENV), serotype not stated); assay: sandwich ELISA, antibody at 3.125 ng/ml captured on goat anti-mouse IgG, DENV-positive serum, HRP-labelled DENV mAb

Sequence of UniProt P09866 (P09866 775-1126 limits assumed): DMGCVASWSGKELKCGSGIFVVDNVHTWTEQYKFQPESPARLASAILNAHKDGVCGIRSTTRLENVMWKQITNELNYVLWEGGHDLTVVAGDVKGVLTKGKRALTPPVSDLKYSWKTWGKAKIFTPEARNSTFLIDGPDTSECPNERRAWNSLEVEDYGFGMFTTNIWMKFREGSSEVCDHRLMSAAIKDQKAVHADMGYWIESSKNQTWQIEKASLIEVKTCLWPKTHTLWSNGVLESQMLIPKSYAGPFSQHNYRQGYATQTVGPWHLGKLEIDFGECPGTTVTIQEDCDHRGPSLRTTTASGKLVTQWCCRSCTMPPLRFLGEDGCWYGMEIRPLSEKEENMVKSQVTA

对照抗体 (antibody)
OD (450nm, 参考630nm) [1]: 0.996 OD
OD (450nm, 参考630nm) [2]: 1.54 OD
OD (450nm, 参考630nm) [3]: 0.045 OD
Kd [4]: 811 nM
koff [4]: 0.0019 s⁻¹
kon [4]: 2340 M⁻¹ s⁻¹
OD (450nm, 参考630nm) [5]: 0.317 OD
OD (450nm, 参考630nm) [6]: 0.48 OD
OD (450nm, 参考630nm) [7]: 0.692 OD
